Assay results from patent publication US20210340238A1, “TGFß1 INHIBITORS AND USE THEREOF” (Scholar Rock, Inc., priority 2018, published 2021).
Where a chain is given by its changes, count along the chain named.

B1: Ab19 (antibody, V domains shown)
VH: QVQLVESGGGVVQPGRSLRLSCAASGFTFSSFAMTWVRQAPGKGLEWVSAISGSGAATYFADSVKGRFTISRDNSKNTLYLQMNSLRAEDTAVYYCARVSSGHWDFDEWGQGTLVTVSS
VL: DIQLTQSPSSLSASVGDRVTITCRASQSISSYLNWYQQKPGKAPKLLIYAASNLQSGVPSRFSGSGSGTDFTLTISSLQPEDFATYYCQQTYTVPLTFGGGTKVEIK
B2: Ab14 (antibody, IgG1, V domains shown)
VH: EVQLLESGGGLVQPGGSLRLSCAASGFTFSAYAMTWVRQAPGKGLEWVSAISGTGGSTYYADSVKGRFTISRDNSKNTLYLQMNSLRAEDTAVYYCARVSSGHWDFDYWGQGTLVTVSS
VL: B1 VL with L4M, N53S, T91V, T93D, V94P
B3: Ab12 (antibody, V domains shown)
VH: B1 VH with S31D, F32Y, T35V, A56F, A57T, F60Y, E108Y
VL: B1 VL
B4: Ab20 (antibody, V domains shown)
VH: B2 VH with T54S, S57V, F106Y
VL: B1 VL
B5: Ab13 (antibody, IgG1, V domains shown)
VH: B2 VH with S30A, A31D, G53S, T54F, G55A, G56S, S57A, T58I
VL: B1 VL with L4M, N53S, T91V, T93D, V94P
B6: Ab11 (antibody, V domains shown)
VH: B2 VH with S30R, A31N, T35S, A50S, T54S, S57A
VL: B1 VL
B7: Ab16 (antibody, IgG1, V domains shown)
VH: B2 VH with A31N, T35S, T54S, G56F, S57T
VL: B1 VL
B8: Ab17 (antibody, IgG1, V domains shown)
VH: B1 VH with Q1E, V5L, R16G, E108Y
VL: B1 VL
B9: Ab2 (antibody, V domains shown)
VH: B2 VH with S30A, A31D, T54S, G56A, S57A, Y60F
VL: B1 VL
B10: Ab15 (antibody, IgG1, V domains shown)
VH: B2 VH with L5V, L11V, G16R, A31D, T35V, T54S, G56F, S57T
VL: B1 VL
B11: Ab18 (antibody, IgG1, V domains shown)
VH: B1 VH with S31D, F32Y, T35V, R98T, E108Y
VL: B1 VL

How the values were obtained:
[1] = biological target: Cell-associated proTGFβ1 (hGARP-proTGFβ1 and hLRRC33-proTGFβ1 complexes); assay: Octet (BLI); IgG1 from yeast; mean of hGARP and hLRRC33
[2] = biological target: Matrix-associated proTGFβ1 (hLTBP1-proTGFβ1 and hLTBP3-proTGFβ1 complexes); assay: Octet (BLI); IgG1 from yeast; mean of hLTBP1 and hLTBP3
[3] = biological target: Cell-associated proTGFβ1 (hGARP-proTGFβ1 and hLRRC33-proTGFβ1 complexes); assay: MSD-SET; IgG4 from mammalian cells; mean of hGARP and hLRRC33
[4] = biological target: Matrix-associated proTGFβ1 (hLTBP1-proTGFβ1 and hLTBP3-proTGFβ1 complexes); assay: MSD-SET; IgG4 from mammalian cells; mean of hLTBP1 and hLTBP3
[5] = biological target: Matrix-associated proTGFβ1 (hLTBP1-proTGFβ1 and hLTBP3-proTGFβ1 complexes); assay: MSD-SET; cell average KD over ECM average KD
[6] = biological target: Matrix-associated proTGFβ1 (hLTBP1-proTGFβ1 and hLTBP3-proTGFβ1 complexes); assay: Octet (BLI); cell average KD over ECM average KD

| Binder | Cell AVRG (average KD) [1] [nM] | ECM AVRG (average KD) [2] [nM] | Cell AVRG (average KD) [3] [nM] | ECM AVRG (average KD) [4] [nM] | G/D (fold bias) [5] [fold] | G/D (fold bias) [6] [fold] |
| --- | --- | --- | --- | --- | --- | --- |
| B1 | 5.95 | 0.172 | 4.75 | 2.83 | 1.68 | 34.5 |
| B2 | 5.92 | 0.341 |  |  |  | 17.4 |
| B3 | 3.89 | 0.17 | 2.45 | 0.72 | 3.4 | 22.9 |
| B4 | 0.715 | 0.162 | 1.35 | 0.2 | 6.75 | 4.42 |
| B5 | 5.7 | 0.263 |  |  |  | 21.7 |
| B6 | 0.699 | 0.161 | 4.65 | 1.2 | 3.87 | 4.35 |
| B7 | 2.4 | 0.157 |  |  |  | 15.3 |
| B8 | 4.64 | 0.191 |  |  |  | 24.3 |
| B9 | 0.643 | 0.157 | 2.3 | 0.266 |  |  |
| B10 | 3.86 | 0.159 |  |  |  | 24.2 |
| B11 | 6.26 | 0.284 |  |  |  | 22 |
